The experiment addresses T1, human IL-1α (human, UniProt P01583 113-271).
T1 construct: also called IL-1alpha; hIL-1α
T1 sequence (looked up): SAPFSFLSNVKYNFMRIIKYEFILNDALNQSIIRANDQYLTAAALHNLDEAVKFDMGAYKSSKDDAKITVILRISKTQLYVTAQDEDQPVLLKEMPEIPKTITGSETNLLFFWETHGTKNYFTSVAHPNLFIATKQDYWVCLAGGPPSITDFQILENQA
The experiment is described as follows: Table 62 IC50; RBA presumed.

Usually IC50 stands for the concentration that inhibits the measured activity by half. A higher IC50 goes with weaker potency.

B1: ABT1-95-35 (other)
VL: DIQMTQSPSSLSASVGDRVTITCRASGPIVRNLRWYQQKPGKAPKLLIYSSSYLEPGVPSRFSGSGSGTDFTLTISSLQPEDFATYHCQQGYRWPVTFGQGTKVEIKR
notes: VK dAb
Consider B1, for which 0.2 nM corresponded to half-maximal inhibition (IC50).

B2: ABT1-95-50 (other)
VL: DIQMTQSPSSLSASVGDRVTITCRASQPIPRNLRWYQQKPGKAPKLLIYSSSYLEPGVPSRFSGSGSGTDFTLTISSLQPEDFATYHCQQGYRWPVTFGQGTKVEIKR
notes: VK dAb
Molecule B2 gave an IC50 of 0.5 nM.

B3: ABT1-95-78 (other)
VL: DIQMTQSPSSLSASVGDRVTITCRASQPIVRNLRWYQQKPGKAPKLLIYSESYLEPGVPSRFSGSGSGTDFTLTISSLQPEDFATYHCQQGYRWPVTFGQGTKVEIKR
notes: VK dAb
B3 returned a half-inhibitory concentration (IC50) of 0.3 nM.

B4: ABT1-95-58 (other)
VL: DIQMTQSPSSLSASVGDRVTITCRARQPIVSNLRWYQQKPGKAPKLLIYSSSYLEPGVPSRFSGSGSGTDFTLTISSLQPEDFATYHCQQGYRWPVTFGQGTKVEIKR
notes: VK dAb
B4 had an IC50 of 0.6 nM.

B5: ABT1-95-95 (other)
VL: DIQMIQSPSSLSASVGDRVTITCRASQPIVRNLRWYQQKPGKAPKLLIYSSSQLEPGVPSRFSGSGSGTDFTLTISSLQPEDFATYHCQQGYRWPVTFGQGTKVEIKR
notes: VK dAb
On to B5, for which the IC50 stood at 0.3 nM.

B6: ABT1-95-57 (other)
VL: DIQMTQSPSSLSASVGDRVTITCRASQPIVENLRWYQQKPGKAPKLLIYSSSYLEPGVPSRFSGSGSGTDFTLTISSLQPEDFATYHCQQGYRWPVTFGQGTKVEIKR
notes: VK dAb
B6 gave an IC50 of 0.6 nM.

B7: ABT1-95-87 (other)
VL: DIQMTQSPSSLSASVGDRVTITCRASQPIVRNLRWYQQKPGKAPKLLIYSSSRLEPGVPSRFSGSGSGTDFTLTISSLQPEDFATYHCQQGYRWPVTFGQGTKVEIKR
notes: VK dAb
As for B7, the IC50 came to 0.2 nM.

B8: ABT1-95-70 (other)
VL: DIQMTQSPSSLSASVGDRVTITCRASQPIVRNLRWYQQKPGKAPKLLVYGSSYLEPGVPSRFSGSGSGTDFTLTISSLQPEDFATYHCQQGYRWPVTFGQGTKVEIKR
notes: VK dAb
In turn, B8 registered an IC50 of 0.1 nM.

B9: ABT1-95-93 (other)
VL: DIQMTQSPSSLSASVGDRVTITCRASQPIVRNLRWYQQKPGKAPKLLIYSSSILEPGVPSRFSGGGSGTDFTLTISSLQPEDFATYHCQQGYRWPVTFGQGTKVEIKR
notes: VK dAb
Molecule B9 returned an IC50 of 0.1 nM.

B10: ABT1-95-77 (other)
VL: DIQMTQSPSSLSASVGDRVTITCRASQPIVRNLRWYQQKPGKAPELLIYSGSYLEPGVPSRFSGSGSGTDFTLTISSLQPEDFATYHCQQGYRWPVTFGQGTKVEIKR
notes: VK dAb
Molecule B10 gave an IC50 of 0.3 nM.

B11: ABT1-95-91 (other)
VL: DIQMTQSPSSLSASVGDRVTITCRASQPIVRNLRWYQQKPGKAPKLLIYSSSNLEPGVPSRFSGSGSGTDFTLTISSLQPEDFATYHCQQGYRWPVTFGQGTKVEIKR
notes: VK dAb
The molecule B11 had an IC50 of 0.3 nM.

B12: ABT1-95-46 (other)
VL: DIQMTQSPSSLSASVGDRVTITCRASSPIVQNLRWYQQKPGKAPKLLIYSSSYLEPGVPSRFSGSGSGTDFTLTISSLQPEDFATYHCQQGYRWPVTFGQGTKVEIKR
notes: VK dAb
Molecule B12 had an IC50 of 0.8 nM.

B13: ABT1-95-69 (other)
VL: DIQMTQSPSSLSASVGDRVTITCRASQPIVRNLRWYQQKPGKAPKLLIYKSSYLEPGVPSRFSGSGSGTDFTLTISSLQPEDFATYHCQQGYRWPVTFGQGTKVEIKR
notes: VK dAb
Molecule B13 displayed an IC50 of 1 nM.

B14: ABT1-95-39 (other)
VL: DIQMTQSPSSLSASVGDRVTITCRASQPIVRNLRWYQQKPGKAPKLLIYSSSYLEPGVPSRFSGSGSGTDFTLTISGLQPEDFATYHCQQGYRWPVTFGQGTKVEIKR
notes: VK dAb
As for B14, the IC50 turned out to be 0.2 nM.

B15: ABT1-95-76 (other)
VL: DIQMTQSPSSLSASVGDRVTITCRASQPIVRNLRWYQQKPGKAPKLLIYSGSYLEPGVPSRFSGSGSGTDFTLTISSLQPEDFATYHCQQGYRWPVTFGQGTKVEIKR
notes: VK dAb
In the case of B15, the IC50 came out at 0.3 nM.

B16: ABT1-95-74 (other)
VL: DIQMTQSPSSLSASVGDRVTITCRASQPIVRNLRWYQQRPGKAPKLLIYSGSYLEPGVPSRFSGSGSGTDFTLTISSLQPEDFATYHCQQGYRWPVTFGQGTKVEIKR
notes: VK dAb
As for B16, half-maximal inhibition (IC50) required 0.3 nM.

B17: ABT1-95-89 (other)
VL: DIQMTQSPSSLSASVGDRVTITCRASQPIVRNLRWYQQKPGKAPKLLIYSSSLLEPGVPSRFSGSGSGTDFTLTISSLQPEDFATYHCQQGYRWPVTFGQGTKVEIKR
notes: VK dAb
Consider B17, for which the IC50 amounted to 0.3 nM.

B18: ABT1-95-96 (other)
VL: DIQMTQSPSSLSASVGDRVTIACRASQPIVRNLRWYQQKPGKAPKLLIYSSSRLEPGVPSRFSGSGSGTDFTLTISSLQPEDFATYHCQQGYRWPVTFGQGTKVEIKR
notes: VK dAb
B18: half-maximal inhibition (IC50) required 0.1 nM.

B19: ABT1-95-63 (other)
VL: DIQMTQSPSSLSASVGDRVTITCRASQPIVRNLRWYQQKLGKAPKLLIFSSSYLEPGVPSRFSGSGSGTDFTLTISSLQPEDFATYHCQQGYRWPVTFGQGTKVEIKR
notes: VK dAb
Turning to B19, it took 0.6 nM to reach half-maximal inhibition (IC50).

B20: ABT1-95-42 (other)
VL: DIQMTQSPSSLSASVGDRVTITCRASFPIVRNLRWYQQKPGKAPKLLIYSSSYLEPGVPSRFSGSGSGTDFTLTISSLQPEDFATYHCQQGYRWPVTFGQGTKVEIKR
notes: VK dAb
In the case of B20, inhibition was half-maximal at 0.1 nM (IC50).

B21: ABT1-95-90 (other)
VL: DIQMTQSPSSLSASVGDRVTITCRASQPIVRNLRWYQQKPGKAPKLLIYSSSQLEPGVPSRFSGSGSGTDFTLTISSLQPEDFATYHCQQGYRWPVTFGQGTKVEIKR
notes: VK dAb
In the case of B21, the IC50 worked out at 0.5 nM.

B22: ABT1-95-83 (other)
VL: DIQMTQSPSSLSASVGDRVTITCRASQPIVRNLRWYQQKPGKAPKLLIYSSSYLEPGVPPRFSGSGSGTDFTLTISSLQPEDFATYHCQQGYRWPVTFGQGTKVEIKR
notes: VK dAb
In the case of B22, the IC50 turned out to be 0.2 nM.

B23: ABT1-95-55 (other)
VL: DIQMTQSPSSLSASVGDRVTITCRASQPIVHNLRWYQQKPGKAPKLLIYSSSYLEPGVPSRFSGSGSGTDFTLTISSLQPEDFATYHCQQGYRWPVTFGQGTKVEIKR
notes: VK dAb
B23 gave an IC50 of 0.6 nM.

B24: ABT1-95-65 (other)
VL: DIQMTQSPSSLSASVGDRVTITCRASQPIVRNLRWYQQKPGKAPKLLIYGSSYLEPGVPSRFSGSGSGTDFTLTISSLQPEDFATYHCQQGYRWPVTFGQGTKVEIKR
notes: VK dAb
Regarding B24, the midpoint of inhibition, the IC50, lay at 0.2 nM.

B25: ABT1-95-59 (other)
VL: DIQMTQSPSSLSASVGDRVTITCRASQPIVKNLRWYQQKPGKAPKLLIYSSSYLEPGVPSRFSGSGSGTDFTLTISSLQPEDFATYHCQQGYRWPVTFGQGTKVEIKR
notes: VK dAb
Molecule B25 gave an IC50 of 0.3 nM.

B26: ABT1-95-73 (other)
VL: DIQMTQSPSSLSASVGDRVTITCRASQPIVRNLRWYQQKPGKAPKLLIYQSSYLEPGVPSRFSGSGSGTDFTLTISSLQPEDFATYHCQQGYRWPVTFGQGTKVEIKR
notes: VK dAb
Turning to B26, the IC50 worked out at 3 nM.

B27: ABT1-95-94 (other)
VL: DIQMTQSPSSLSASVGDRVTITCRASQPIVRNLRWYQQKPGKAPKLLIYSSSSLEPGVPSRFSGSGSGTDFTLTISSLQPEDFATYHCQQGYRWPVTFGQGTKVEIKR
notes: VK dAb
In the case of B27, the IC50 is 0.1 nM.

B28: ABT1-95-75 (other)
VL: DIQMTQSPSSLSASVGDRVTITCRASQPIVRNLRWYQQKPGKAPKLLIYSASYLEPGVPSRFSGSGSGTDFTLTISSLQPEDFATYHCQQGYRWPVTFGQGTKVEIKR
notes: VK dAb
In turn, B28 yielded an IC50 of 0.3 nM.

B29: ABT1-95-60 (other)
VL: DIQMTQSPASLSASVGDRVTITCRASQPIVANLRWYQQKPGKAPKLLIYSSSYLEPGVPSRFSGSGSGTDFTLTISSLQPEDFATYHCQQGYRWPVTFGQGTKVEIKR
notes: VK dAb
With B29, the half-maximal inhibitory concentration (IC50) worked out at 0.7 nM.

B30: ABT1-95-54 (other)
VL: DIQMTQSPSSLSASVGDRVTITCRASQPIVTNLRWYQQKPGKAPKLLIYSSSYLEPGVPSRFSGSGSGTDFTLTISSLQPEDFATYHCQQGYRWPVTFGQGTKVEIKR
notes: VK dAb
Turning to B30, inhibition was half-maximal at 1 nM (IC50).

B31: ABT1-95-72 (other)
VL: DIQMTQSPSSLSASVGDRVTITCRASQPIVRNLRWYQQKPGKAPKLLIYHSSYLEPGVPSRFSGSGSGTDFTLTISSLQPEDFATYHCQQGYRWPVTFGQGTKVEIKR
notes: VK dAb
On to B31, for which the IC50 amounted to 1 nM.

B32: ABT1-95-52 (other)
VL: DIQMTQSPSSLSASVGDRVTITCRASQPIVSNLRWYQQKPGKAPKLLIYSSSYLEPGVPSRFSGSGSGTDFTLTISSLQPEDFATYHCQQGYRWPVTFGQGTKVEIKR
notes: VK dAb
B32: the IC50 stood at 1 nM.

B33: ABT1-95-71 (other)
VL: DIQMTQSPSSLSASVGDRVTITCRASQPIVRNLRWYQQKPGKAPKLLIYNSSYLEPGVPSRFSGSGSGTDFTLTISSLQPEDFATYHCQQGYRWPVTFGQGTKVEIKR
notes: VK dAb
In turn, B33 yielded an IC50 of 1 nM.

B34: ABT1-95-53 (other)
VL: DIQMTQSPSSLSASVGDRVTITCRASQPIVANLRWYQQKPGKAPKLLIYSSSYLEPGVPSRFSGSGSGTDFTLTISSLQPEDFATYHCQQGYRWPVTFGQGTKVEIKR
notes: VK dAb
B34 showed an IC50 of 0.3 nM.

These data come from patent publication US20090291081A1 (AbbVie / Abbott, published 2009).
